Data on four molecules can be found in PMC6983858, “Biochemical and structural analyses reveal that the tumor suppressor neurofibromin (NF1) forms a high-affinity dimer” (The Journal of Biological Chemistry, 2019).

The target in series [1] is T1, neurofibromin ABC fragment (2–1540) (human, UniProt P21359-2 2-1540).
T1 construct: neurofibromin, human, NF1 isoform 2 (NM_000267.3); numbers count on: the 2818-residue isoform; TEV cleavage (ENLYFQ/G) probably leaves a G at the N-terminus; also called NF1-ABC; source: Tni-FNL insect cells (baculovirus), purified; not shown: His6, N-terminal, cleaved; MBP, N-terminal, cleaved
Description: SEC; equimolar mixtures of two purified NF1 fragments on an analytical SEC column, fractions analysed by SDS-PAGE. Conditions: both partners purified.

In series [2] the target is T2, neurofibromin EF fragment (1821–2818) (human, UniProt P21359-2 1821-2818).
T2 construct: neurofibromin, human, NF1 isoform 2 (NM_000267.3); residues 1821-2818; numbers count on: the 2818-residue isoform; TEV cleavage (ENLYFQ/G) probably leaves a G at the N-terminus; also called EF domain; EF(1821–2818); source: Tni-FNL insect cells (baculovirus), purified; not shown: His6, N-terminal, cleaved; MBP, N-terminal, cleaved
T2 sequence (looked up): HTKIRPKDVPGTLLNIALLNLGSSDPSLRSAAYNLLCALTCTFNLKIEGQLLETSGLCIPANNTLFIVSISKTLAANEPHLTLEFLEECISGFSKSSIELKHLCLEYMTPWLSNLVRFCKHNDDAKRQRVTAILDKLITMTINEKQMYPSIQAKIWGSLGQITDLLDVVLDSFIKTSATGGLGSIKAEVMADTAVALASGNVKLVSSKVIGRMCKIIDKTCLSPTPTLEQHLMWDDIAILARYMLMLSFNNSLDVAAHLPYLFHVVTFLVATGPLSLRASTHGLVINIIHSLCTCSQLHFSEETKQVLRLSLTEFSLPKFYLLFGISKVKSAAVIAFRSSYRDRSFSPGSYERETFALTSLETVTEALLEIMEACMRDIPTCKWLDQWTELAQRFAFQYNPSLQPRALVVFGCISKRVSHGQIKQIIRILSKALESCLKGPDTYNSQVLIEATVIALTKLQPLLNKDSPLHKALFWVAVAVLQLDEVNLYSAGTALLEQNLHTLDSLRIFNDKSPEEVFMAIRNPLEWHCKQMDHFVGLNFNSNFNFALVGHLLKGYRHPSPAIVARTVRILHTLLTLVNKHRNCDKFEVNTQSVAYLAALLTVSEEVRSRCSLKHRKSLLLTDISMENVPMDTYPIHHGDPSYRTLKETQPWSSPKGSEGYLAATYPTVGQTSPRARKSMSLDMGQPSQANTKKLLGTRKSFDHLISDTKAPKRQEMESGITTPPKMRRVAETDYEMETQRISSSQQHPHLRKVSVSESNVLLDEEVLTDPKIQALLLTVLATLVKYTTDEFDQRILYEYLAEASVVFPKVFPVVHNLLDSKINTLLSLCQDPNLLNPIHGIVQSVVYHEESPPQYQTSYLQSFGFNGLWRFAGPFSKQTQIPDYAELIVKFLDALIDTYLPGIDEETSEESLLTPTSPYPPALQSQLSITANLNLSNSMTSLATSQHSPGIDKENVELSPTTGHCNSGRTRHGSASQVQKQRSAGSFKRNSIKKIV
The description is as above. Conditions: both partners purified.

Series [3] concerns the molecule itself. Description: AUC; sedimentation velocity of CDEF, 2.2 to 8.8 μM, 40,000 rpm, 20 °C, 300 mM NaCl, 20 mM HEPES-NaOH pH 7.3, 5 mM TCEP.

T1 sequence (P21359 other isoform, or with tags, fused parts or gaps): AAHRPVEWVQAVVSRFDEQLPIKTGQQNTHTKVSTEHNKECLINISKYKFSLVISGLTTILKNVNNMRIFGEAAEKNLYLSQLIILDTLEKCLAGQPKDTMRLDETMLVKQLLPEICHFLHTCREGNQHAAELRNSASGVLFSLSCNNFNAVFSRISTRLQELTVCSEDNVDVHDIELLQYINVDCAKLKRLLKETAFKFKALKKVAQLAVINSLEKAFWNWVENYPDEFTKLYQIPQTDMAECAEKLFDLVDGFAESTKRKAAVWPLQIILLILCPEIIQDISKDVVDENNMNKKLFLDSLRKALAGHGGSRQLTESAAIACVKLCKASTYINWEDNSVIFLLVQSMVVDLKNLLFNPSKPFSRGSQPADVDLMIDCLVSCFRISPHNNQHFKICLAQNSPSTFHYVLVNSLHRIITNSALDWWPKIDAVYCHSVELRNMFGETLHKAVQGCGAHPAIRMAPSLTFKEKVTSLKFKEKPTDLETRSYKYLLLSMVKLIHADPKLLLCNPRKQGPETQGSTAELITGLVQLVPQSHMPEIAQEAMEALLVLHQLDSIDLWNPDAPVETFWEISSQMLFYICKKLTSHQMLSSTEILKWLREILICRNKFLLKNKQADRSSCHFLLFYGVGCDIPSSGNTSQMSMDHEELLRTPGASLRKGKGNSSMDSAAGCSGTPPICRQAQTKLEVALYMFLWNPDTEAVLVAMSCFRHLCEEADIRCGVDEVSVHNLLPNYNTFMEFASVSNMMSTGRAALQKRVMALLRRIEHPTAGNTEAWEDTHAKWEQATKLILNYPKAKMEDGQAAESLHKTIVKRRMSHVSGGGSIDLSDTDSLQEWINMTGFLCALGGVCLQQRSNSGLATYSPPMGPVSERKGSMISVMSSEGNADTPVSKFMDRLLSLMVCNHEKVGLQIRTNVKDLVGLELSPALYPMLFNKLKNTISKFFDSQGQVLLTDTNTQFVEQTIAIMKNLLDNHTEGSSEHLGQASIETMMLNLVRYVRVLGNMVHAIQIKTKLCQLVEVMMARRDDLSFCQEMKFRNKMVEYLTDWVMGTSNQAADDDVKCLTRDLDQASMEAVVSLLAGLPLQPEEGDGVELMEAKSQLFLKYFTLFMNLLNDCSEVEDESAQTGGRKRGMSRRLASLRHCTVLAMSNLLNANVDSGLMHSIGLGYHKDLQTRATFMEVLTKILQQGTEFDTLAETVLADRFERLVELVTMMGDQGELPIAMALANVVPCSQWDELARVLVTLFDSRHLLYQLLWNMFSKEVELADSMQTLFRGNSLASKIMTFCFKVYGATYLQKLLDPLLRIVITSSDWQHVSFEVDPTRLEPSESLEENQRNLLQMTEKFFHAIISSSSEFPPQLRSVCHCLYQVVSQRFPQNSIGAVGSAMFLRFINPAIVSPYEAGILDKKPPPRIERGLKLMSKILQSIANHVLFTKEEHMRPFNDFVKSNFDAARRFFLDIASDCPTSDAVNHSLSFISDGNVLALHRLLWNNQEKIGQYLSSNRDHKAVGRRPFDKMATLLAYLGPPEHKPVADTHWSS

B1: neurofibromin DEF fragment (1541–2818) (domain or fragment, human, UniProt P21359-2 1541-2818, looked up)
chain: LNLTSSKFEEFMTRHQVHEKEEFKALKTLSIFYQAGTSKAGNPIFYYVARRFKTGQINGDLLIYHVLLTLKPYYAKPYEIVVDLTHTGPSNRFKTDFLSKWFVVFPGFAYDNVSAVYIYNCNSWVREYTKYHERLLTGLKGSKRLVFIDCPGKLAEHIEHEQQKLPAATLALEEDLKVFHNALKLAHKDTKVSIKVGSTAVQVTSAERTKVLGQSVFLNDIYYASEIEEICLVDENQFTLTIANQGTPLTFMHQECEAIVQSIIHIRTRWELSQPDSIPQHTKIRPKDVPGTLLNIALLNLGSSDPSLRSAAYNLLCALTCTFNLKIEGQLLETSGLCIPANNTLFIVSISKTLAANEPHLTLEFLEECISGFSKSSIELKHLCLEYMTPWLSNLVRFCKHNDDAKRQRVTAILDKLITMTINEKQMYPSIQAKIWGSLGQITDLLDVVLDSFIKTSATGGLGSIKAEVMADTAVALASGNVKLVSSKVIGRMCKIIDKTCLSPTPTLEQHLMWDDIAILARYMLMLSFNNSLDVAAHLPYLFHVVTFLVATGPLSLRASTHGLVINIIHSLCTCSQLHFSEETKQVLRLSLTEFSLPKFYLLFGISKVKSAAVIAFRSSYRDRSFSPGSYERETFALTSLETVTEALLEIMEACMRDIPTCKWLDQWTELAQRFAFQYNPSLQPRALVVFGCISKRVSHGQIKQIIRILSKALESCLKGPDTYNSQVLIEATVIALTKLQPLLNKDSPLHKALFWVAVAVLQLDEVNLYSAGTALLEQNLHTLDSLRIFNDKSPEEVFMAIRNPLEWHCKQMDHFVGLNFNSNFNFALVGHLLKGYRHPSPAIVARTVRILHTLLTLVNKHRNCDKFEVNTQSVAYLAALLTVSEEVRSRCSLKHRKSLLLTDISMENVPMDTYPIHHGDPSYRTLKETQPWSSPKGSEGYLAATYPTVGQTSPRARKSMSLDMGQPSQANTKKLLGTRKSFDHLISDTKAPKRQEMESGITTPPKMRRVAETDYEMETQRISSSQQHPHLRKVSVSESNVLLDEEVLTDPKIQALLLTVLATLVKYTTDEFDQRILYEYLAEASVVFPKVFPVVHNLLDSKINTLLSLCQDPNLLNPIHGIVQSVVYHEESPPQYQTSYLQSFGFNGLWRFAGPFSKQTQIPDYAELIVKFLDALIDTYLPGIDEETSEESLLTPTSPYPPALQSQLSITANLNLSNSMTSLATSQHSPGIDKENVELSPTTGHCNSGRTRHGSASQVQKQRSAGSFKRNSIKKIV
notes: neurofibromin, human, NF1 isoform 2 (NM_000267.3); numbers count on: the 2818-residue isoform; TEV cleavage (ENLYFQ/G) probably leaves a G at the N-terminus; also called NF1-DEF; source: Tni-FNL insect cells (baculovirus), purified; not shown: His6, N-terminal, cleaved; MBP, N-terminal, cleaved
With B1, the binding result in series [1] is “binds”.

B2: neurofibromin C* domain (1085–1530) (domain or fragment, human, UniProt P21359-2 1085-1530, looked up)
chain: LQPEEGDGVELMEAKSQLFLKYFTLFMNLLNDCSEVEDESAQTGGRKRGMSRRLASLRHCTVLAMSNLLNANVDSGLMHSIGLGYHKDLQTRATFMEVLTKILQQGTEFDTLAETVLADRFERLVELVTMMGDQGELPIAMALANVVPCSQWDELARVLVTLFDSRHLLYQLLWNMFSKEVELADSMQTLFRGNSLASKIMTFCFKVYGATYLQKLLDPLLRIVITSSDWQHVSFEVDPTRLEPSESLEENQRNLLQMTEKFFHAIISSSSEFPPQLRSVCHCLYQVVSQRFPQNSIGAVGSAMFLRFINPAIVSPYEAGILDKKPPPRIERGLKLMSKILQSIANHVLFTKEEHMRPFNDFVKSNFDAARRFFLDIASDCPTSDAVNHSLSFISDGNVLALHRLLWNNQEKIGQYLSSNRDHKAVGRRPFDKMATLLAYLGPPEH
notes: neurofibromin, human, NF1 isoform 2 (NM_000267.3); numbers count on: the 2818-residue isoform; TEV cleavage (ENLYFQ/G) probably leaves a G at the N-terminus; source: Tni-FNL insect cells (baculovirus), purified; not shown: His6, N-terminal, cleaved; MBP, N-terminal, cleaved
As for B2, the binding result in series [2] is on record as “binds”.

B3: neurofibromin CDEF fragment (861–2818) (domain or fragment, human, UniProt P21359-2 861-2818, looked up)
chain: ATYSPPMGPVSERKGSMISVMSSEGNADTPVSKFMDRLLSLMVCNHEKVGLQIRTNVKDLVGLELSPALYPMLFNKLKNTISKFFDSQGQVLLTDTNTQFVEQTIAIMKNLLDNHTEGSSEHLGQASIETMMLNLVRYVRVLGNMVHAIQIKTKLCQLVEVMMARRDDLSFCQEMKFRNKMVEYLTDWVMGTSNQAADDDVKCLTRDLDQASMEAVVSLLAGLPLQPEEGDGVELMEAKSQLFLKYFTLFMNLLNDCSEVEDESAQTGGRKRGMSRRLASLRHCTVLAMSNLLNANVDSGLMHSIGLGYHKDLQTRATFMEVLTKILQQGTEFDTLAETVLADRFERLVELVTMMGDQGELPIAMALANVVPCSQWDELARVLVTLFDSRHLLYQLLWNMFSKEVELADSMQTLFRGNSLASKIMTFCFKVYGATYLQKLLDPLLRIVITSSDWQHVSFEVDPTRLEPSESLEENQRNLLQMTEKFFHAIISSSSEFPPQLRSVCHCLYQVVSQRFPQNSIGAVGSAMFLRFINPAIVSPYEAGILDKKPPPRIERGLKLMSKILQSIANHVLFTKEEHMRPFNDFVKSNFDAARRFFLDIASDCPTSDAVNHSLSFISDGNVLALHRLLWNNQEKIGQYLSSNRDHKAVGRRPFDKMATLLAYLGPPEHKPVADTHWSSLNLTSSKFEEFMTRHQVHEKEEFKALKTLSIFYQAGTSKAGNPIFYYVARRFKTGQINGDLLIYHVLLTLKPYYAKPYEIVVDLTHTGPSNRFKTDFLSKWFVVFPGFAYDNVSAVYIYNCNSWVREYTKYHERLLTGLKGSKRLVFIDCPGKLAEHIEHEQQKLPAATLALEEDLKVFHNALKLAHKDTKVSIKVGSTAVQVTSAERTKVLGQSVFLNDIYYASEIEEICLVDENQFTLTIANQGTPLTFMHQECEAIVQSIIHIRTRWELSQPDSIPQHTKIRPKDVPGTLLNIALLNLGSSDPSLRSAAYNLLCALTCTFNLKIEGQLLETSGLCIPANNTLFIVSISKTLAANEPHLTLEFLEECISGFSKSSIELKHLCLEYMTPWLSNLVRFCKHNDDAKRQRVTAILDKLITMTINEKQMYPSIQAKIWGSLGQITDLLDVVLDSFIKTSATGGLGSIKAEVMADTAVALASGNVKLVSSKVIGRMCKIIDKTCLSPTPTLEQHLMWDDIAILARYMLMLSFNNSLDVAAHLPYLFHVVTFLVATGPLSLRASTHGLVINIIHSLCTCSQLHFSEETKQVLRLSLTEFSLPKFYLLFGISKVKSAAVIAFRSSYRDRSFSPGSYERETFALTSLETVTEALLEIMEACMRDIPTCKWLDQWTELAQRFAFQYNPSLQPRALVVFGCISKRVSHGQIKQIIRILSKALESCLKGPDTYNSQVLIEATVIALTKLQPLLNKDSPLHKALFWVAVAVLQLDEVNLYSAGTALLEQNLHTLDSLRIFNDKSPEEVFMAIRNPLEWHCKQMDHFVGLNFNSNFNFALVGHLLKGYRHPSPAIVARTVRILHTLLTLVNKHRNCDKFEVNTQSVAYLAALLTVSEEVRSRCSLKHRKSLLLTDISMENVPMDTYPIHHGDPSYRTLKETQPWSSPKGSEGYLAATYPTVGQTSPRARKSMSLDMGQPSQANTKKLLGTRKSFDHLISDTKAPKRQEMESGITTPPKMRRVAETDYEMETQRISSSQQHPHLRKVSVSESNVLLDEEVLTDPKIQALLLTVLATLVKYTTDEFDQRILYEYLAEASVVFPKVFPVVHNLLDSKINTLLSLCQDPNLLNPIHGIVQSVVYHEESPPQYQTSYLQSFGFNGLWRFAGPFSKQTQIPDYAELIVKFLDALIDTYLPGIDEETSEESLLTPTSPYPPALQSQLSITANLNLSNSMTSLATSQHSPGIDKENVELSPTTGHCNSGRTRHGSASQVQKQRSAGSFKRNSIKKIV
notes: neurofibromin, human, NF1 isoform 2 (NM_000267.3); residues 861-2818; numbers count on: the 2818-residue isoform; TEV cleavage (ENLYFQ/G) probably leaves a G at the N-terminus; also called NF1-CDEF; NF1(861–2818); source: Tni-FNL insect cells (baculovirus), purified; not shown: His6, N-terminal, cleaved; MBP, N-terminal, cleaved
B3: the “stoichiometry N” value in series [3] turned out to be 2.

B4: neurofibromin C*D domain (1085–1816) (domain or fragment, human, UniProt P21359-2 1085-1816, looked up)
chain: LQPEEGDGVELMEAKSQLFLKYFTLFMNLLNDCSEVEDESAQTGGRKRGMSRRLASLRHCTVLAMSNLLNANVDSGLMHSIGLGYHKDLQTRATFMEVLTKILQQGTEFDTLAETVLADRFERLVELVTMMGDQGELPIAMALANVVPCSQWDELARVLVTLFDSRHLLYQLLWNMFSKEVELADSMQTLFRGNSLASKIMTFCFKVYGATYLQKLLDPLLRIVITSSDWQHVSFEVDPTRLEPSESLEENQRNLLQMTEKFFHAIISSSSEFPPQLRSVCHCLYQVVSQRFPQNSIGAVGSAMFLRFINPAIVSPYEAGILDKKPPPRIERGLKLMSKILQSIANHVLFTKEEHMRPFNDFVKSNFDAARRFFLDIASDCPTSDAVNHSLSFISDGNVLALHRLLWNNQEKIGQYLSSNRDHKAVGRRPFDKMATLLAYLGPPEHKPVADTHWSSLNLTSSKFEEFMTRHQVHEKEEFKALKTLSIFYQAGTSKAGNPIFYYVARRFKTGQINGDLLIYHVLLTLKPYYAKPYEIVVDLTHTGPSNRFKTDFLSKWFVVFPGFAYDNVSAVYIYNCNSWVREYTKYHERLLTGLKGSKRLVFIDCPGKLAEHIEHEQQKLPAATLALEEDLKVFHNALKLAHKDTKVSIKVGSTAVQVTSAERTKVLGQSVFLNDIYYASEIEEICLVDENQFTLTIANQGTPLTFMHQECEAIVQSIIHIRTRWELSQPD
notes: neurofibromin, human, NF1 isoform 2 (NM_000267.3); numbers count on: the 2818-residue isoform; TEV cleavage (ENLYFQ/G) probably leaves a G at the N-terminus; also called CD domains; source: Tni-FNL insect cells (baculovirus), purified; not shown: His6, N-terminal, cleaved; MBP, N-terminal, cleaved
Regarding B4, the binding result in series [2] is “binds”.
